Test results published in US20130316374A1, “BREAST CANCER DIAGNOSTICS” (IMBA - INSTITUT FUR MOLEKULARE BIOTECHNOLOGIE GMBH, priority 2010, published 2013).
“Also recorded” adds a separate entry of the source.

B1: RANKL: Receptor Activator of NF-κB Ligand; recombinant murine RANKL used for stimulation (protein, UniProt O35235 139-316, looked up)
Tumor necrosis factor ligand …: FSGAPAMMEGSWLDVAQRGKPEAQPFAHLTINAASIPSGSHKVTLSSWYHDRGWAKISNMTLSNGKLRVNQDGFYYLYANICFRHHETSGSVPTDYLQLMVYVVKTSIKIPSSHNLMKGGSTKNWSGNSEFHFYSINVGGFFKLRAGEEISIQVSNPSLLDPDQDATYFGAFKVQDID

Key:
Lin-CD24+CD49f^hi cells = test: FACS quantification of MaSC-enriched CD24+CD49high population from mammary glands; format: in vivo, mouse; settings: MPA for 3 days
Experimental: a, Epithelial proliferation in mammary glands of control littermates and RANK^Δmam females 3 days after sham treatment and MPA implantation. Proliferation was determined by in situ Ki67 immunostaining. b,c, Marked increase of the stem cell-enriched CD24^+CD49^high population (MaSC) in MPA-treated mammary glands in control but not in RANK^Δmam mammary glands. b, Representative FACS profiles showing CD24 and CD49 expression of lineage negative (CD31^− (endothelial cells) CD45^− (hematopoietic cells) […] (erythroid cells)) of mammary MaSCs from MPA- or sham-treated 8-week old virgin females. c, Quantification of MaSC-enriched CD24^+CD49^high population from mammary glands of MPA- or sham-treated virgin RANK^Δmam and littermate control females. For all MaSCs experiments mice were treated with MPA for 3 days. n=4 per group+/−sem. *P<0.05; ***P<0.001 (Student's t-test).
Recently it has been reported that endogenous progesterone affects the numbers of Lin-CD24+CD49f^hi stem cells during pregnancy^15 and the estrous cycle^16. In both studies, the RANKL/RANK system was implicated based on in vivo whole body Ab blocking studies and RT-PCR expression, however, it was not known whether this is a direct effect of RANKL-RANK in mammary epithelial cells rather than a secondary effect. Therefore it was assayed whether progestins such as MPA can also expand Lin-CD24+CD49f^hi cells.

[1] = test system: primary mouse mammary gland epithelial cells (MECs); test: Western blotting of RANKL/RANK downstream signaling in MECs; format: cell-based; settings: RANKL stimulation (1 μg/ml)
Experimental: (§1) a, Western blotting for phosphorylated (P) IKKα, total IKKα, phosphorylated (P) p65 NFκB, total p65 NFκB, phosphorylated (P) IκBα, and total IκBα in isolated primary mouse mammary gland epithelial cells (MECs) in response to RANKL stimulation (1 μg/ml). […] is shown as loading control. b, Western blotting for IKKα, IKKβ, IKKγ, phosphorylated (P) p65 NFκB, total p65 NFκB, phosphorylated (P) IκBα, and total IκBα in pooled late stage mammary adenocarconimas (n=4 for each lane) that developed in control, RANK^Δmam, and IKKα^Δmam females. β-actin is shown as loading control c, Expression of RANK, CyclinD1, and p21 mRNA in late stage mammary adenocacinomas that developed in control, RANK^Δmam, and IKKα^Δmam females. Expression was determined by qRT-PCR. Data are mean values+/−sem. n=4 per group. d, Soft-Agar Colony Formation Assay. Growth of human SKBR3 breast cancer cells in soft agar in response to stimulation with RANKL (1 μg/ml) or EGF (100 ng/ml). […] Apoptosis was detected by immunostaining for active Caspase 3. f, Apoptotic nuclei of epithelial cells (arrows) are shown for representative mammary gland sections. Magnifications ×40. g, Quantification of mammary epithelial apoptosis. A minimum of 5000 nuclei was counted for each mouse. […]

[2] = test system: human SKBR3 breast cancer cells; test: Soft-Agar Colony Formation Assay; format: cell-based; settings: RANKL (1 μg/ml), 18 days in culture
Experimental: as §1

Molecule | expansion of Lin-CD24+CD49f^hi cells (Lin-CD24+CD49f^hi cells; RANK^Δmam females) | expansion of Lin-CD24+CD49f^hi cells (Lin-CD24+CD49f^hi cells; control females) | p65 NFκB and IκBα phosphorylation [1] | phosphorylation of p38-MAPKs and ERK [1] | anchorage-independent growth in soft agar [2]
CC(=O)O[C@]1(C(C)=O)CC[C@H]2[C@@H]3C[C@H](C)C4=CC(=O)CC[C@]4(C)[C@H]3CC[C@@]21C [MPA, medroxyprogesterone acetate] | did not occur | two-fold expansion |  |  | 
B1 |  |  | resulted in p65 NFκB and IκBα phosphorylation | triggered phosphorylation of p38-MAPKs and ERK | induced growth of SKBR3 cells in soft agar; also recorded: macroscopic colonies formed
